T1: Human PTK7 Protein, His Tag (Acro Biosystems) (human, UniProt Q13308 31-704)
T1 construct: Bought recombinant protein; also called CCK4; tyrosine-protein kinase-like 7; not shown: His tag
T1 sequence: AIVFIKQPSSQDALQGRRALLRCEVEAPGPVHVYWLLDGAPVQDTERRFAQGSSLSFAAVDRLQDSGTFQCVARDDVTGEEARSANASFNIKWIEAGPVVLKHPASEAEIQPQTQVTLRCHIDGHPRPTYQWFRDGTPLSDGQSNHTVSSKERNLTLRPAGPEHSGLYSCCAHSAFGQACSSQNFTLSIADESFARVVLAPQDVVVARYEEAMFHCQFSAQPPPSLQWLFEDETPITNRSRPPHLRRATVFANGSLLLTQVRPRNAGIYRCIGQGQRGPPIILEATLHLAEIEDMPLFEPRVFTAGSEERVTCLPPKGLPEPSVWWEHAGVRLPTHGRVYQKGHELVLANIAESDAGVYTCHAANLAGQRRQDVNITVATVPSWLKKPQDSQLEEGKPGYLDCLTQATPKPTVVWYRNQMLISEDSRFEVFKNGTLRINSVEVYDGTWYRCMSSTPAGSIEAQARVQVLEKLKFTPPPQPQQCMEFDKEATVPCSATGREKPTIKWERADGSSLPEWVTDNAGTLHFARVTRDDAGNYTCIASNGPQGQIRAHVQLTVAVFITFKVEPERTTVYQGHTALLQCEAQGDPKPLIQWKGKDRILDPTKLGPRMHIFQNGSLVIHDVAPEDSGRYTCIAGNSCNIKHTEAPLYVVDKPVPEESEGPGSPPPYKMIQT

B1: MYT11340 (antibody, V domains shown)
VH: EVQLVESGGGLVQPGGSLRLSCTASGHDLSNYAVIWVRQAPGKGLEWVGIIYTYDTTYYANWAKGRFTISRDTSKNTVYLQMNSLRAEDTAVYFCARSFSDISDLIKLWGQGTLVTVSS
VL: EIVMTQSPSTLSASVGDRVIITCQASQSLYNNKDLAWYQQKPGKAPKLLIYEASKLASGVPSRFSGSGSGAEFTLTISSLQPDDFATYYCLGEFSCGSGDCLAFGQGTKLTVL
notes: MYT9797 HC variant; captured via anti-human Fc
B2: MYT11358 (antibody, V domains shown)
VH: EVQLVESGGGLVQPGGSLRLSCTASGIDLSNYAVIWVRQAPGKGLEWVGIIYTYDTTYHANWAKGRFTISRDTSKNTVYLQMNSLRAEDTAVYFCARSFSDISDLIKLWGQGTLVTVSS
VL: EIVMTQSPSTLSASVGDRVIITCQASQSLYNNKDLAWYQQKPGKAPKLLIYEASKLASGVPSRFSGSGSGAEFTLTISSLQPDDFATYYCLGEFSCGSGDCLAFGQGTKLTVL
notes: as for B1
B3: MYT11347 (antibody, V domains shown)
VH: EVQLVESGGGLVQPGGSLRLSCTASGIDLSNYAHIWVRQAPGKGLEWVGIIYTYDTTYYANWAKGRFTISRDTSKNTVYLQMNSLRAEDTAVYFCARSFSDISDLIKLWGQGTLVTVSS
VL: EIVMTQSPSTLSASVGDRVIITCQASQSLYNNKDLAWYQQKPGKAPKLLIYEASKLASGVPSRFSGSGSGAEFTLTISSLQPDDFATYYCLGEFSCGSGDCLAFGQGTKLTVL
notes: as for B1
B4: MYT11345 (antibody, V domains shown)
VH: EVQLVESGGGLVQPGGSLRLSCTASGIDLSNHAVIWVRQAPGKGLEWVGIIYTYDTTYYANWAKGRFTISRDTSKNTVYLQMNSLRAEDTAVYFCARSFSDISDLIKLWGQGTLVTVSS
VL: EIVMTQSPSTLSASVGDRVIITCQASQSLYNNKDLAWYQQKPGKAPKLLIYEASKLASGVPSRFSGSGSGAEFTLTISSLQPDDFATYYCLGEFSCGSGDCLAFGQGTKLTVL
notes: as for B1
B5: MYT11348 (antibody, V domains shown)
VH: EVQLVESGGGLVQPGGSLRLSCTASGIDLSNYAVHWVRQAPGKGLEWVGIIYTYDTTYYANWAKGRFTISRDTSKNTVYLQMNSLRAEDTAVYFCARSFSDISDLIKLWGQGTLVTVSS
VL: EIVMTQSPSTLSASVGDRVIITCQASQSLYNNKDLAWYQQKPGKAPKLLIYEASKLASGVPSRFSGSGSGAEFTLTISSLQPDDFATYYCLGEFSCGSGDCLAFGQGTKLTVL
notes: as for B1
B6: MYT11350 (antibody, V domains shown)
VH: EVQLVESGGGLVQPGGSLRLSCTASGIDLSNYAVIWVRQAPGKGLEWVGIHYTYDTTYYANWAKGRFTISRDTSKNTVYLQMNSLRAEDTAVYFCARSFSDISDLIKLWGQGTLVTVSS
VL: EIVMTQSPSTLSASVGDRVIITCQASQSLYNNKDLAWYQQKPGKAPKLLIYEASKLASGVPSRFSGSGSGAEFTLTISSLQPDDFATYYCLGEFSCGSGDCLAFGQGTKLTVL
notes: as for B1
B7: MYT11344 (antibody, V domains shown)
VH: EVQLVESGGGLVQPGGSLRLSCTASGIDLSHYAVIWVRQAPGKGLEWVGIIYTYDTTYYANWAKGRFTISRDTSKNTVYLQMNSLRAEDTAVYFCARSFSDISDLIKLWGQGTLVTVSS
VL: EIVMTQSPSTLSASVGDRVIITCQASQSLYNNKDLAWYQQKPGKAPKLLIYEASKLASGVPSRFSGSGSGAEFTLTISSLQPDDFATYYCLGEFSCGSGDCLAFGQGTKLTVL
notes: as for B1
B8: MYT11362 (antibody, V domains shown)
VH: EVQLVESGGGLVQPGGSLRLSCTASGIDLSNYAVIWVRQAPGKGLEWVGIIYTYDTTYYANWHKGRFTISRDTSKNTVYLQMNSLRAEDTAVYFCARSFSDISDLIKLWGQGTLVTVSS
VL: EIVMTQSPSTLSASVGDRVIITCQASQSLYNNKDLAWYQQKPGKAPKLLIYEASKLASGVPSRFSGSGSGAEFTLTISSLQPDDFATYYCLGEFSCGSGDCLAFGQGTKLTVL
notes: as for B1
B9: MYT11343 (antibody, V domains shown)
VH: EVQLVESGGGLVQPGGSLRLSCTASGIDLHNYAVIWVRQAPGKGLEWVGIIYTYDTTYYANWAKGRFTISRDTSKNTVYLQMNSLRAEDTAVYFCARSFSDISDLIKLWGQGTLVTVSS
VL: EIVMTQSPSTLSASVGDRVIITCQASQSLYNNKDLAWYQQKPGKAPKLLIYEASKLASGVPSRFSGSGSGAEFTLTISSLQPDDFATYYCLGEFSCGSGDCLAFGQGTKLTVL
notes: as for B1
B10: MYT11361 (antibody, V domains shown)
VH: EVQLVESGGGLVQPGGSLRLSCTASGIDLSNYAVIWVRQAPGKGLEWVGIIYTYDTTYYANHAKGRFTISRDTSKNTVYLQMNSLRAEDTAVYFCARSFSDISDLIKLWGQGTLVTVSS
VL: EIVMTQSPSTLSASVGDRVIITCQASQSLYNNKDLAWYQQKPGKAPKLLIYEASKLASGVPSRFSGSGSGAEFTLTISSLQPDDFATYYCLGEFSCGSGDCLAFGQGTKLTVL
notes: as for B1
B11: MYT11359 (antibody, V domains shown)
VH: EVQLVESGGGLVQPGGSLRLSCTASGIDLSNYAVIWVRQAPGKGLEWVGIIYTYDTTYYHNWAKGRFTISRDTSKNTVYLQMNSLRAEDTAVYFCARSFSDISDLIKLWGQGTLVTVSS
VL: EIVMTQSPSTLSASVGDRVIITCQASQSLYNNKDLAWYQQKPGKAPKLLIYEASKLASGVPSRFSGSGSGAEFTLTISSLQPDDFATYYCLGEFSCGSGDCLAFGQGTKLTVL
notes: as for B1
B12: MYT11364 (antibody, V domains shown)
VH: EVQLVESGGGLVQPGGSLRLSCTASGIDLSNYAVIWVRQAPGKGLEWVGIIYTYDTTYYANWAKHRFTISRDTSKNTVYLQMNSLRAEDTAVYFCARSFSDISDLIKLWGQGTLVTVSS
VL: EIVMTQSPSTLSASVGDRVIITCQASQSLYNNKDLAWYQQKPGKAPKLLIYEASKLASGVPSRFSGSGSGAEFTLTISSLQPDDFATYYCLGEFSCGSGDCLAFGQGTKLTVL
notes: as for B1
B13: MYT11342 (antibody, V domains shown)
VH: EVQLVESGGGLVQPGGSLRLSCTASGIDHSNYAVIWVRQAPGKGLEWVGIIYTYDTTYYANWAKGRFTISRDTSKNTVYLQMNSLRAEDTAVYFCARSFSDISDLIKLWGQGTLVTVSS
VL: EIVMTQSPSTLSASVGDRVIITCQASQSLYNNKDLAWYQQKPGKAPKLLIYEASKLASGVPSRFSGSGSGAEFTLTISSLQPDDFATYYCLGEFSCGSGDCLAFGQGTKLTVL
notes: as for B1
B14: MYT11360 (antibody, V domains shown)
VH: EVQLVESGGGLVQPGGSLRLSCTASGIDLSNYAVIWVRQAPGKGLEWVGIIYTYDTTYYAHWAKGRFTISRDTSKNTVYLQMNSLRAEDTAVYFCARSFSDISDLIKLWGQGTLVTVSS
VL: EIVMTQSPSTLSASVGDRVIITCQASQSLYNNKDLAWYQQKPGKAPKLLIYEASKLASGVPSRFSGSGSGAEFTLTISSLQPDDFATYYCLGEFSCGSGDCLAFGQGTKLTVL
notes: as for B1
B15: MYT11366 (antibody, V domains shown)
VH: EVQLVESGGGLVQPGGSLRLSCTASGIDLSNYAVIWVRQAPGKGLEWVGIIYTYDTTYYANWAKGRFTISRDTSKNTVYLQMNSLRAEDTAVYFCAHSFSDISDLIKLWGQGTLVTVSS
VL: EIVMTQSPSTLSASVGDRVIITCQASQSLYNNKDLAWYQQKPGKAPKLLIYEASKLASGVPSRFSGSGSGAEFTLTISSLQPDDFATYYCLGEFSCGSGDCLAFGQGTKLTVL
notes: as for B1

Molecular target: T1, Human PTK7 Protein, His Tag (Acro …)
Assay: BLI, antibody on anti-human Fc sensor, 50 nM PTK7 at pH 7.4, dissociation at pH 7.4 or 5.4; 2 = substantially similar binding relative to parent

Binder	binding result
B1	binds
B2	binds
B3	binds
B4	binds
B5	binds
B6	binds
B7	binds
B8	binds
B9	binds
B10	binds
B11	binds
B12	binds
B13	binds
B14	binds
B15	binds

From patent publication US20260209386A1 (MYTHIC THERAPEUTICS, published 2026)
